Experimental data from patent US20250333506A1 (NEW YORK UNIVERSITY, published 2025).
Like-named read-outs stand apart in the source and are kept apart here. Values belong to the binder of their own block, whether it stands above or below them.

What was measured:
[1] = target: T1, cynomolgus Gamma/Delta1A TCR-Fc fusion protein (cynomolgus monkey, biotinylated in vitro with recombinant BirA (AviTag)); assay: bead binding assay (TCR-Fc on streptavidin beads, IgG titrated, flow cytometry); apparent KD, s.d. of triplicates
T1 construct: First chain = delta, second = gamma; also called Cyno D1; cyno D1; not shown: Fc portion of mouse IgG, then AviTag and His6 tag at the C-terminus; Fc portion of mouse IgG

Cyno D2 [2] = target: T2, Cyno D2 (biotinylated (AviTag)); assay: bead binding assay: biotinylated TCR-Fc on streptavidin beads, IgG titrated, flow cytometry
T2 construct: also called cynomolgus Gamma/Delta2; Cyno D2/G
T2 delta chain: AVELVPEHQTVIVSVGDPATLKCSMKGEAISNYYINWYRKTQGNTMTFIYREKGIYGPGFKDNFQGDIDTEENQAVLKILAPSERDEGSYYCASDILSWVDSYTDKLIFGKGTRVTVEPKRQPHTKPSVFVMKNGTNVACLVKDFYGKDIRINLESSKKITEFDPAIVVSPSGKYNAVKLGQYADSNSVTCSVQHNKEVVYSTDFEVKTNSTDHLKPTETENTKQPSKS
T2 gamma chain: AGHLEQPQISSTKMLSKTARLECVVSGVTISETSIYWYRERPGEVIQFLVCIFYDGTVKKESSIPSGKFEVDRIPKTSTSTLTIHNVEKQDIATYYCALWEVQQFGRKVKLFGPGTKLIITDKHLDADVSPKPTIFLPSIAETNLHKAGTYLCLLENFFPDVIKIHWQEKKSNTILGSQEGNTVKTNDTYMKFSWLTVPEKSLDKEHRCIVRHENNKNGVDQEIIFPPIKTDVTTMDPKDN

Cyno D2 [3] = target: T2, Cyno D2; assay: as above
[4] = target: T1, cynomolgus Gamma/Delta1A TCR-Fc fusion …; assay: as above
Cyno D2 [5] = target: T2, Cyno D2; assay: as above
[6] = target: T1, cynomolgus Gamma/Delta1A TCR-Fc fusion …; assay: bead binding assay (TCR-Fc on streptavidin beads, IgG titrated, flow cytometry); apparent KD
[7] = target: T1, cynomolgus Gamma/Delta1A TCR-Fc fusion …; assay: bead binding assay: biotinylated TCR-Fc on streptavidin beads, IgG titrated, flow cytometry; remark: listed apart in the source
[8] = target: T3, human Delta1 TCR (Fc fusion protein, Delta1 clone and gamma chain not stated); assay: bead binding assay: Fc fusion proteins on streptavidin-coated beads, IgG titrated, flow cytometry
T3 construct: also called Human Delta1 Fc fusion protein; human delta-1 chain

[9] = target: T4, cynomolgus monkey Delta1 Fc fusion protein (Delta1 clone not stated); assay: as above
T4 construct: also called monkey (cyno) delta-1 chain; monkey Delta1 receptors

[10] = target: T3, human Delta1 TCR (Fc fusion protein, …); assay: bead binding titration, flow cytometry (MFI against antibody concentration)
[11] = target: T1, cynomolgus Gamma/Delta1A TCR-Fc fusion …; assay: bead binding assay: biotinylated TCR-Fc on streptavidin beads, IgG titrated, flow cytometry; remark: listed apart in the source
[12] = target: T1, cynomolgus Gamma/Delta1A TCR-Fc fusion …; assay: as above; remark: listed apart in the source
[13] = target: T1, cynomolgus Gamma/Delta1A TCR-Fc fusion …; assay: as above; remark: listed apart in the source
Cyno D2 [14] = target: T2, Cyno D2; assay: as above
Cyno D2 [15] = target: T2, Cyno D2; assay: as above
[16] = target: T3, human Delta1 TCR (Fc fusion protein, …); assay: SPR: biotinylated TCR on a neutravidin-loaded Avicap chip, IgG flowed (OneStep, Pioneer instrument)
Cyno D2 [17] = target: T2, Cyno D2; assay: bead binding assay: biotinylated TCR-Fc on streptavidin beads, IgG titrated, flow cytometry
[18] = target: T1, cynomolgus Gamma/Delta1A TCR-Fc fusion …; assay: as above; remark: listed apart in the source

B1: Delta1-19 (antibody, V domains shown)
VH: EVQLVESGGGLVQPGGSLRLSCAASGFTVSSSSIHWVRQAPGKGLEWVASIYSSSGYTYYADSVKGRFTISADTSKNTAYLQMNSLRAEDTAVYYCARDPGSYYWYYSGSAYEGYGLDYWGQGTLVTVSS
VL: DIQMTQSPSSLSASVGDRVTITCRASQSVSSAVAWYQQKPGKAPKLLIYAASSLQSGVPSRFSGSRSGTDFTLTISSLQPEDFATYYCQQMDRFYSLITFGQGTKVEIKR
notes: Tested in the human IgG format
Kd [1]: 0.25 nM
binding result (Cyno D2 [2]): binds

B2: Delta1-30 (antibody, V domains shown)
VH: EVQLVESGGGLVQPGGSLRLSCAASGFTVSSSSIHWVRQAPGKGLEWVASIYSSSGYTYYADSVKGRFTISADTSKNTAYLQMNSLRAEDTAVYYCARDPGSYYWYYSGSAYEGYGLDYWGQGTLVTVSS
VL: DIQMTQSPSSLSASVGDRVTITCRASQSVSSAVAWYQQKPGKAPKLLIYSASSLYSGVPSRFSGSRSGTDFTLTISSLQPEDFATYYCQQSGDDLITFGQGTKVEIKR
binding result (Cyno D2 [3]): no binding (tested: 100 nM)

B5: Delta1-36 (antibody, V domains shown)
VH: EVQLVESGGGLVQPGGSLRLSCAASGFTFSSNDIHWVRQAPGKGLEWVASIYSSSGYTYYADSVKGRFTISADTSKNTAYLQMNSLRAEDTAVYYCARDPGSYYWYYSGSAYEGYGLDYWGQGTLVTVSS
VL: DIQMTQSPSSLSASVGDRVTITCRASQSVSSAVAWYQQKPGKAPKLLIYAASSLQSGVPSRFSGSRSGTDFTLTISSLQPEDFATYYCQQQSKYPFLITFGQGTKVEIKR
notes: also called anti-Delta1-36
EC50 (read off the curve) [7]: ~3 nM

B7: Delta1-33 (antibody, V domains shown)
VH: EVQLVESGGGLVQPGGSLRLSCAASGFTFSSSSIHWVRQAPGKGLEWVASIYSSSGYTYYADSVKGRFTISADTSKNTAYLQMNSLRAEDTAVYYCARDPGSYYWYYSGSAYEGYGLDYWGQGTLVTVSS
VL: DIQMTQSPSSLSASVGDRVTITCRASQSVSSAVAWYQQKPGKAPKLLIYAASSLQSGVPSRFSGSRSGTDFTLTISSLQPEDFATYYCQQQSKYPFLITFGQGTKVEIKR
notes: also called anti-Delta1-33
EC50 (read off the curve) [11]: ~2 nM

B9: Delta1-34 (antibody, V domains shown)
VH: EVQLVESGGGLVQPGGSLRLSCAASGFTFSGTDIHWVRQAPGKGLEWVASIYSSSGYTYYADSVKGRFTISADTSKNTAYLQMNSLRAEDTAVYYCARDPGSYYWYYSGSAYEGYGLDYWGQGTLVTVSS
VL: DIQMTQSPSSLSASVGDRVTITCRASQSVSSAVAWYQQKPGKAPKLLIYAASSLQSGVPSRFSGSRSGTDFTLTISSLQPEDFATYYCQQQSKYPFLITFGQGTKVEIKR
notes: also called anti-Delta1-34
EC50 (read off the curve) [13]: ~3 nM

B12: Delta1-28 (antibody, V domains shown)
VH: EVQLVESGGGLVQPGGSLRLSCAASGFTVSSSSIHWVRQAPGKGLEWVASIYSSSGYTYYADSVKGRFTISADTSKNTAYLQMNSLRAEDTAVYYCARDPGSYYWYYSGSAYEGYGLDYWGQGTLVTVSS
VL: DIQMTQSPSSLSASVGDRVTITCRASQSVSSAVAWYQQKPGKAPKLLIYAASSLQSGVPSRFSGSRSGTDFTLTISSLQPEDFATYYCQQWMRSSSLFTFGQGTKVEIKR
notes: as for B1
Kd [1]: 0.36 nM
binding result (Cyno D2 [17]): no binding (tested: 100 nM)

Next, values leading:

EC50 (read off the curve) [4]: ~2 nM
B3: Delta1-40 (antibody, V domains shown)
VH: EVQLVESGGGLVQPGGSLRLSCAASGFTFTSSSIHWVRQAPGKGLEWVASIYSSSGYTYYADSVKGRFTISADTSKNTAYLQMNSLRAEDTAVYYCARDPGSYYWYYSGSAYEGYGLDYWGQGTLVTVSS
VL: DIQMTQSPSSLSASVGDRVTITCRASQSVSSAVAWYQQKPGKAPKLLIYAASSLQSGVPSRFSGSRSGTDFTLTISSLQPEDFATYYCQQQSKYPFLITFGQGTKVEIKR
notes: also called anti-Delta1-40

binding result (Cyno D2 [5]): no binding (tested: 100 nM)
Kd [6]: 30.4 nM
B4: Delta1-29 (antibody, V domains shown)
VH: EVQLVESGGGLVQPGGSLRLSCAASGFTVSSSSIHWVRQAPGKGLEWVASIYSSSGYTYYADSVKGRFTISADTSKNTAYLQMNSLRAEDTAVYYCARDPGSYYWYYSGSAYEGYGLDYWGQGTLVTVSS
VL: DIQMTQSPSSLSASVGDRVTITCRASQSVSSAVAWYQQKPGKAPKLLIYAASSLQSGVPSRFSGSRSGTDFTLTISSLQPEDFATYYCQQSGDDLITFGQGTKVEIKR
notes: as for B1

EC50 (read off the curve) [8]: 2 to 3 nM
EC50 (read off the curve) [9]: ~2 nM
EC50 (read off the curve) [10]: ~1 nM
Kd [6]: 2.7 nM
B6: Delta1-41 (antibody, V domains shown)
VH: EVQLVESGGGLVQPGGSLRLSCAASGFTFSANDIHWVRQAPGKGLEWVASIYSSSGYTYYADSVKGRFTISADTSKNTAYLQMNSLRAEDTAVYYCARDPGSYYWYYSGSAYEGYGLDYWGQGTLVTVSS
VL: DIQMTQSPSSLSASVGDRVTITCRASQSVSSAVAWYQQKPGKAPKLLIYAASSLQSGVPSRFSGSRSGTDFTLTISSLQPEDFATYYCQQQSKYPFLITFGQGTKVEIKR
notes: Tested in the human IgG format; also called anti-Delta1-41

EC50 (read off the curve) [12]: ~2 nM
B8: Delta1-37 (antibody, V domains shown)
VH: EVQLVESGGGLVQPGGSLRLSCAASGFTFTGSSIHWVRQAPGKGLEWVASIYSSSGYTYYADSVKGRFTISADTSKNTAYLQMNSLRAEDTAVYYCARDPGSYYWYYSGSAYEGYGLDYWGQGTLVTVSS
VL: DIQMTQSPSSLSASVGDRVTITCRASQSVSSAVAWYQQKPGKAPKLLIYAASSLQSGVPSRFSGSRSGTDFTLTISSLQPEDFATYYCQQQSKYPFLITFGQGTKVEIKR
notes: also called anti-Delta1-37

binding result (Cyno D2 [14]): no binding (tested: 100 nM)
Kd [6]: 0.78 nM
B10: Delta1-27 (antibody, V domains shown)
VH: EVQLVESGGGLVQPGGSLRLSCAASGFTVSSSSIHWVRQAPGKGLEWVASIYSSSGYTYYADSVKGRFTISADTSKNTAYLQMNSLRAEDTAVYYCARDPGSYYWYYSGSAYEGYGLDYWGQGTLVTVSS
VL: DIQMTQSPSSLSASVGDRVTITCRASQSVSSAVAWYQQKPGKAPKLLIYAASSLQSGVPSRFSGSRSGTDFTLTISSLQPEDFATYYCQQSSRNSKLITFGQGTKVEIKR
notes: as for B1

binding result (Cyno D2 [15]): no binding (tested: 100 nM)
Kd [16]: 4.6 nM
EC50 (read off the curve) [10]: ~0.5 nM
Kd [6]: 13.7 nM
B11: Delta1-17 (antibody, V domains shown)
VH: EVQLVESGGGLVQPGGSLRLSCAASGFTVSSSSIHWVRQAPGKGLEWVASIYSSSGYTYYADSVKGRFTISADTSKNTAYLQMNSLRAEDTAVYYCARDPGMYYWYYSGSAYEGYGLDYWGQGTLVTVSS
VL: DIQMTQSPSSLSASVGDRVTITCRASQSVSSAVAWYQQKPGKAPKLLIYSASSLYSGVPSRFSGSRSGTDFTLTISSLQPEDFATYYCQQSGDDLITFGQGTKVEIKR
notes: also called anti-Delta1-17; Delta-17

EC50 (read off the curve) [18]: ~3 nM
B13: Delta1-38 (antibody, V domains shown)
VH: EVQLVESGGGLVQPGGSLRLSCAASGFTFTSSDIHWVRQAPGKGLEWVASIYSSSGYTYYADSVKGRFTISADTSKNTAYLQMNSLRAEDTAVYYCARDPGSYYWYYSGSAYEGYGLDYWGQGTLVTVSS
VL: DIQMTQSPSSLSASVGDRVTITCRASQSVSSAVAWYQQKPGKAPKLLIYAASSLQSGVPSRFSGSRSGTDFTLTISSLQPEDFATYYCQQQSKYPFLITFGQGTKVEIKR
notes: also called anti-Delta1-38
